First the molecules themselves.
B1: HDV Ribozyme (parent)
chain: GGCCGGCAUGGUCCCAGCCUCCUCGCUGGCGCCGGCUGGGCAACAUUCCGAGGGGACCGUCCCCUCGGUAAUGGCGAAUGGGACCCA

Variants of B1 are the subject of the data set. Kind of data set: self-cleavage, relative activity (ratio to wild type); higher = more cleavage; co-transcriptional.
Regarding GGCCGACAUGGUCCCAGCCUCCUCGCUGGCGCCGGCUGGGCAACAUUCCGAGGGGACCGUCCCCUCGGUAAUGGCGAAAGGGACCCA, the self-cleavage worked out at 0.322.
GGCCGGCAUGGUCCCAGCCUCCUCGCUGGCGCCGGCUGGGCAACAUUCCGAGGGGACCGUCCCCUCCGCAAUGGCGAAUGGGACCCA: the self-cleavage turned out to be 1.
Then GGCCGGCAUGGUCCCAGCCUCCUCGCUGGCGCCGGCUGGGCAACAUUCCGAGGGGACCGUCACCUCGGUAAUGACGAAUGGGACCCA, with 0.619; and GGCCGGCAUGGUCCUAGCCUCCUCGCUGGCUCCGGCUGGGCAACAUUCCGAGGGGACCGUCCCCUCGGUAAUGGCGAAUGGGACCCA, with 0.248.
Then GGCCGGCAUGGUCCCUGCCUCCUCGCUGGCGCCGGCUGGGCAACAUUCCGAGGGGACCGUCCCCUCGGUAAUGGCGAAUGGGACCCG, with 0.968.
Then GGCCGGCAUGGUCCCAUCCUCCUCGCUGGCGCCGGCUGGGCAACAUACCGAGGGGACCGUCCCCUCGGUAAUGGCGAAUGGGACCCA, with 0.256; and GGCCGGCAUGGUCCCUGCCUCCUCGCUGGCGCCGGCUGGGCAACAUUCCGAGGGGACCGUCCCCUCGGUAAUGGCGAAGGGGACCCA, with 1.13; and GGCCGGCAUGGUCCCAGCCUCCUCGCUAGCGCCGGUUGGGCAACAUUCCGAGGGGACCGUCCCCUCGGUAAUGGCGAAUGGGACCCA, with 0.0811.
For the variant GGCCGGCAUGGUCCCAGCCUCCUGGCUGGCGCCGUCUGGGCAACAUUCCGAGGGGACCGUCCCCUCGGUAAUGGCGAAUGGGACCCA, the self-cleavage turned out to be 0.
Then GGCCGGCAUGGUCCCAGCCUCCUCGCUGGCGCCGGCUGGCCAACGUUCCGAGGGGACCGUCCCCUCGGUAAUGGCGAAUGGGACCCA, with 0.32; and GGGCGGCAUGGUCCCAGCCUCCUCGCUGGCGCCGGCUGGGAAACAUUCCGAGGGGACCGUCCCCUCGGUAAUGGCGAAUGGGACCCA, with 0.217; and GGCCGGCAUGGUCCCAGCCUCCUCGCUGGCGCCGGCUGGGCAACAUUCAGAGGGGACCGUCCCCUCGGUAAUGGCGAAAGGGACCCA, with 1.05.
Then GGCCGGCAUGGUCCCAGCCUCCUCGCUGGCGCCGGCUGGGCAACAUUCCGAGGGGCCCGUCCCCUCGCUAAUGGCGAAUGGGACCCA, with 0.486.
Then GGCCGGCAUGGUCCCAGCCUCCUCGCUGGCGCCGGCUGGGCAACAUUCCGAGGGGACCGUCCCCUGGGUAAUGGCGGAUGGGACCCA, with 0.612; and GGCCGGCAUGGUCCCAGCCUCCUCGCUGGCGCCGGCUGGGCAACAUUCCGAGGGUACCGUCCCCUCGGUAAUGGCGAAUGGGACCCC, with 1.01; and GGCCGGCAUGGUCCCAGGCUCCUCGCUGGCGCCGGCUUGGCAACAUUCCGAGGGGACCGUCCCCUCGGUAAUGGCGAAUGGGACCCA, with 0.0386.
With GGCCGGCAUGGUCCCAGCCUACUCGCUGGCGCGGGCUGGGCAACAUUCCGAGGGGACCGUCCCCUCGGUAAUGGCGAAUGGGACCCA, the self-cleavage was 0.0554.
Regarding GGCCGGCAUGGUCCCAGCCUGCUCGCUGGCGCCGGCUGGGCAUCAUUCCGAGGGGACCGUCCCCUCGGUAAUGGCGAAUGGGACCCA, the self-cleavage was 0.
Take GGCCGGCAUGGUCCCAGCCUCCUCGCUGGCUCCGGCUGGGCAACAUUCCGAGGGGACCGUCCCCUCGGUCAUGGCGAAUGGGACCCA: the self-cleavage amounted to 0.161.
Then GGCCGGCAUGGUCCCAGCCUGCUCGCUGGCGCAGGCUGGGCAACAUUCCGAGGGGACCGUCCCCUCGGUAAUGGCGAAUGGGACCCA, with 0.
Then GGCCGGCAUGGUCCCAGCCUCCUCGCUGGCACCGGCUGGGCAACAUUCCGAGGGGACCGUCCCCUCGGUAAUGGCGAAUGAGACCCA, with 0.14; and GGCCGGUAUGGUCCCAGCCUCCUCGCUGGCGCCGGCUGGGCAACAUUCCGAGGGGACCGUCCCCUCGGUAAUGUCGAAUGGGACCCA, with 0.202.
Consider GGCCGGCAUGGUACCAGCCUCCUCGCUGGCGCCGGCUGGGCAACAUUCCGAGGGGACCGUGCCCUCGGUAAUGGCGAAUGGGACCCA, for which the self-cleavage was found to be 0.0959.
Then GGCCGGCAUGGUCCCAGCCUCCUCGCAGGCGCCGGCUGGGCAACAUUCCGCGGGGACCGUCCCCUCGGUAAUGGCGAAUGGGACCCA, with 0.86.
Regarding GGCCGGCAUGGUCCCAGCCUCCUCGCUGGCGCCGGCUGGGCAACAUUCCGAGGGGACCGUCCACUCGGUAAUUGCGAAUGGGACCCA, the self-cleavage is 0.3.
For the variant GGCCGGCAUGGUCCCAGCCUCCUCGCUGGCGCCGGCUGGGCACCAUUCCGAGGGGACCGUCCCCUCGGUAAUGGCGAAGGGGACCCA, the self-cleavage was 0.227.
Then GGCCGGCAUGCUCCCAGCCUCCUCGCUGGCGCCGGCUGGGCAACAUUCCGAGGGGACCGUCCCCUCGGUAAUGGCGAAUGUGACCCA, with 0.225; and GGCCGGCAUGGUCCCAGCCUCCUCGCUCGCGCCGGCUGGGCAACAUUCCGCGGGGACCGUCCCCUCGGUAAUGGCGAAUGGGACCCA, with 0; and GGCCGGCAUGGUCCCAGCCUCCUCGCUGGCGCCGGCUGGGCACAAUUCCGAGGGGACCGUCCCCUCGGUAAUGGCGAAUGGGACCCA, with 0.665.
As to GGCCAGCAUGGUCCCAGCCUCCUCGCUGGCGCCGGCUGGGCAACAUUCCGAGGGUACCGUCCCCUCGGUAAUGGCGAAUGGGACCCA, the self-cleavage turned out to be 0.122.
Then GGCUGGCAUGGUCCCAGCCUCCUCGCUGGCGCCGGCUGGGCAACAUUCCUAGGGGACCGUCCCCUCGGUAAUGGCGAAUGGGACCCA, with 0.656.
Then GGCCGGCAUGGUCCCAGCCUCCUCGCUGGCGCCGGCGGGGCAACAUUGCGAGGGGACCGUCCCCUCGGUAAUGGCGAAUGGGACCCA, with 0.111.

The record behind these values is the RNAGym collection of RNA variant scans (doi:10.7554/elife.80360).
